From IntAct's records for PubMed 31515488

B1: Zinc finger protein 473 (Homo sapiens), Q8WTR7 (parent)
chain: MAEEFVTLKDVGMDFTLGDWEQLGLEQGDTFWDTALDNCQDLFLLDPPRPNLTSHPDGSEDLEPLAGGSPEATSPDVTETKNSPLMEDFFEEGFSQEIIEMLSKDGFWNSNFGEACIEDTWLDSLLGDPESLLRSDIATNGESPTECKSHELKRGLSPVSTVSTGEDSMVHNVSEKTLTPAKSKEYRGEFFSYSDHSQQDSVQEGEKPYQCSECGKSFSGSYRLTQHWITHTREKPTVHQECEQGFDRNASLSVYPKTHTGYKFYVCNEYGTTFSQSTYLWHQKTHTGEKPCKSQDSDHPPSHDTQPGEHQKTHTDSKSYNCNECGKAFTRIFHLTRHQKIHTRKRYECSKCQATFNLRKHLIQHQKTHAAKTTSECQECGKIFRHSSLLIEHQALHAGEEPYKCNERGKSFRHNSTLKIHQRVHSGEKPYKCSECGKAFHRHTHLNEHRRIHTGYRPHKCQECVRSFSRPSHLMRHQAIHTAEKPYSCAECKETFSDNNRLVQHQKMHTVKTPYECQECGERFICGSTLKCHESVHAREKQGFFVSGKILDQNPEQKEKCFKCNKCEKTFSCSKYLTQHERIHTRGVKPFECDQCGKAFGQSTRLIHHQRIHSRVRLYKWGEQGKAISSASLIKLQSFHTKEHPFKCNECGKTFSHSAHLSKHQLIHAGENPFKCSKCDRVFTQRNYLVQHERTHARKKPLVCNECGKTFRQSSCLSKHQRIHSGEKPYVCDYCGKAFGLSAELVRHQRIHTGEKPYVCQECGKAFTQSSCLSIHRRVHTGEKPYRCGECGKAFAQKANLTQHQRIHTGEKPYSCNVCGKAFVLSAHLNQHLRVHTQETLYQCQRCQKAFRCHSSLSRHQRVHNKQQYCL
B2: Methylthioribulose-1-phosphate dehydratase (Homo sapiens), Q96GX9 (parent)
chain: MSGCDAREGDCCSRRCGAQDKEHPRYLIPELCKQFYHLGWVTGTGGGISLKHGDEIYIAPSGVQKERIQPEDMFVCDINEKDISGPSPSKKLKKSQCTPLFMNAYTMRGAGAVIHTHSKAAVMATLLFPGREFKITHQEMIKGIKKCTSGGYYRYDDMLVVPIIENTPEEKDLKDRMAHAMNEYPDSCAVLVRRHGVYVWGETWEKAKTMCECYDYLFDIAVSMKKVGLDPSQLPVGENGIV
partner: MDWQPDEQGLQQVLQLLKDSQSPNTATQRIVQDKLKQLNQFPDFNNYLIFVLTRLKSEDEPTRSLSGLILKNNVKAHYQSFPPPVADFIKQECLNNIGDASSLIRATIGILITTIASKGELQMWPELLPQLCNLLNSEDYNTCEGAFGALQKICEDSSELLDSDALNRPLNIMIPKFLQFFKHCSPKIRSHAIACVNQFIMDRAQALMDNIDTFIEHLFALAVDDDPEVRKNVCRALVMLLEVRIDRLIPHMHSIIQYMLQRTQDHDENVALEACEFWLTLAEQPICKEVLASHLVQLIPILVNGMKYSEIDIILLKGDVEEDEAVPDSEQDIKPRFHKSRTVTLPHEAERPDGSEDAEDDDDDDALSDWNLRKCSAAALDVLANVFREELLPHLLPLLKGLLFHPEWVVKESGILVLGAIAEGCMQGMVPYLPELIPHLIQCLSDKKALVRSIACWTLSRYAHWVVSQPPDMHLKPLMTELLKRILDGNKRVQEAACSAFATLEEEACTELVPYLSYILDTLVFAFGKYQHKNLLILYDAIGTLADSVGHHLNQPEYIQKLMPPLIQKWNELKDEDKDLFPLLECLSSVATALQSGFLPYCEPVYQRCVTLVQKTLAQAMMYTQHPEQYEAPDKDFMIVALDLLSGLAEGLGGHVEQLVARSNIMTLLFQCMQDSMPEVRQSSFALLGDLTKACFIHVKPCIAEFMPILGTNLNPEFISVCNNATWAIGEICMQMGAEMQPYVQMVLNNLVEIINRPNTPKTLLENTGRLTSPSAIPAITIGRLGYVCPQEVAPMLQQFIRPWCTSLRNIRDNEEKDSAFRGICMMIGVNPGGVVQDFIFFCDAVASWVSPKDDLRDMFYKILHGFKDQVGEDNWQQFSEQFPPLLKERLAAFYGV
B3: cGMP-dependent protein kinase 1 (Homo sapiens), Q13976 (parent)
chain: MSELEEDFAKILMLKEERIKELEKRLSEKEEEIQELKRKLHKCQSVLPVPSTHIGPRTTRAQGISAEPQTYRSFHDLRQAFRKFTKSERSKDLIKEAILDNDFMKNLELSQIQEIVDCMYPVEYGKDSCIIKEGDVGSLVYVMEDGKVEVTKEGVKLCTMGPGKVFGELAILYNCTRTATVKTLVNVKLWAIDRQCFQTIMMRTGLIKHTEYMEFLKSVPTFQSLPEEILSKLADVLEETHYENGEYIIRQGARGDTFFIISKGTVNVTREDSPSEDPVFLRTLGKGDWFGEKALQGEDVRTANVIAAEAVTCLVIDRDSFKHLIGGLDDVSNKAYEDAEAKAKYEAEAAFFANLKLSDFNIIDTLGVGGFGRVELVQLKSEESKTFAMKILKKRHIVDTRQQEHIRSEKQIMQGAHSDFIVRLYRTFKDSKYLYMLMEACLGGELWTILRDRGSFEDSTTRFYTACVVEAFAYLHSKGIIYRDLKPENLILDHRGYAKLVDFGFAKKIGFGKKTWTFCGTPEYVAPEIILNKGHDISADYWSLGILMYELLTGSPPFSGPDPMKTYNIILRGIDMIEFPKKIAKNAANLIKKLCRDNPSERLGNLKNGVKDIQKHKWFEGFNWEGLRKGTLTPPIIPSVASPTDTSNFDSFPEDNDEPPPDDNSGWDIDF
partner: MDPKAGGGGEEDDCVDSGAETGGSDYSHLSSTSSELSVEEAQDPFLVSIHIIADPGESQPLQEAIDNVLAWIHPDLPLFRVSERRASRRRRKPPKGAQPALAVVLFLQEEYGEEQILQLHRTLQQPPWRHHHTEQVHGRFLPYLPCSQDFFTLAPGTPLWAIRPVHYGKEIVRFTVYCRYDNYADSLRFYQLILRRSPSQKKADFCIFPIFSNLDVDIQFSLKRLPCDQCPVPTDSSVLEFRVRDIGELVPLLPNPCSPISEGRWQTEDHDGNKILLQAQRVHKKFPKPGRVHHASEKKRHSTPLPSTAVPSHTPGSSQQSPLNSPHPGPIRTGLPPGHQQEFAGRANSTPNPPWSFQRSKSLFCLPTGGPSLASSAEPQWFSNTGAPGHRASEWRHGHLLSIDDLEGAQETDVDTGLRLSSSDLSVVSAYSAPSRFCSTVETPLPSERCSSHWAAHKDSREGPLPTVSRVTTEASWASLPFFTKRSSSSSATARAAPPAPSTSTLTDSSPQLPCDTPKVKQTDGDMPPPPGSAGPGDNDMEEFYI
B4: Kappa-casein (Homo sapiens), P07498 (parent)
chain: MKSFLLVVNALALTLPFLAVEVQNQKQPACHENDERPFYQKTAPYVPMYYVPNSYPYYGTNLYQRRPAIAINNPYVPRTYYANPAVVRPHAQIPQRQYLPNSHPPTVVRRPNLHPSFIAIPPKKIQDKIIIPTINTIATVEPTPAPATEPTVDSVVTPEAFSESIITSTPETTTVAVTPPTA
B5: Thioredoxin-dependent peroxide reductase, mitochondrial (Homo sapiens), P30048 (parent)
chain: MAAAVGRLLRASVARHVSAIPWGISATAALRPAACGRTSLTNLLCSGSSQAKLFSTSSSCHAPAVTQHAPYFKGTAVVNGEFKDLSLDDFKGKYLVLFFYPLDFTFVCPTEIVAFSDKANEFHDVNCEVVAVSVDSHFSHLAWINTPRKNGGLGHMNIALLSDLTKQISRDYGVLLEGSGLALRGLFIIDPNGVIKHLSVNDLPVGRSVEETLRLVKAFQYVETHGEVCPANWTPDSPTIKPSPAASKEYFQKVNQ
B6: Trichoplein keratin filament-binding protein (Homo sapiens), Q9BT92 (parent)
chain: MALPTLPSYWCSQQRLNQQLARQREQEARLRQQWEQNSRYFRMSDICSSKQAEWSSKTSYQRSMHAYQREKMKEEKRRSLEARREKLRQLMQEEQDLLARELEELRLSMNLQERRIREQHGKLKSAKEEQRKLIAEQLLYEHWKKNNPKLREMELDLHQKHVVNSWEMQKEEKKQQEATAEQENKRYENEYERARREALERMKAEEERRQLEDKLQAEALLQQMEELKLKEVEATKLKKEQENLLKQRWELERLEEERKQMEAFRQKAELGRFLRHQYNAQLSRRTQQIQEELEADRRILQALLEKEDESQRLHLARREQVMADVAWMKQAIEEQLQLERAREAELQMLLREEAKEMWEKREAEWARERSARDRLMSEVLTGRQQQIQEKIEQNRRAQEESLKHREQLIRNLEEVRELARREKEESEKLKSARKQELEAQVAERRLQAWEADQQEEEEEEEARRVEQLSDALLQQEAETMAEQGYRPKPYGHPKIAWN

Variants of: B1
Settings: with gpt2l_human GPATCH2L

| Variant | effect of a mutation on the interaction |
| --- | --- |
| S535N | with no effect |
| Y456H | with no effect |

Variants of: B1
Settings: with zn792_human ZNF792, Q3KQV3
zn792_human ZNF792, Q3KQV3, sequence (Q3KQV3 whole entry): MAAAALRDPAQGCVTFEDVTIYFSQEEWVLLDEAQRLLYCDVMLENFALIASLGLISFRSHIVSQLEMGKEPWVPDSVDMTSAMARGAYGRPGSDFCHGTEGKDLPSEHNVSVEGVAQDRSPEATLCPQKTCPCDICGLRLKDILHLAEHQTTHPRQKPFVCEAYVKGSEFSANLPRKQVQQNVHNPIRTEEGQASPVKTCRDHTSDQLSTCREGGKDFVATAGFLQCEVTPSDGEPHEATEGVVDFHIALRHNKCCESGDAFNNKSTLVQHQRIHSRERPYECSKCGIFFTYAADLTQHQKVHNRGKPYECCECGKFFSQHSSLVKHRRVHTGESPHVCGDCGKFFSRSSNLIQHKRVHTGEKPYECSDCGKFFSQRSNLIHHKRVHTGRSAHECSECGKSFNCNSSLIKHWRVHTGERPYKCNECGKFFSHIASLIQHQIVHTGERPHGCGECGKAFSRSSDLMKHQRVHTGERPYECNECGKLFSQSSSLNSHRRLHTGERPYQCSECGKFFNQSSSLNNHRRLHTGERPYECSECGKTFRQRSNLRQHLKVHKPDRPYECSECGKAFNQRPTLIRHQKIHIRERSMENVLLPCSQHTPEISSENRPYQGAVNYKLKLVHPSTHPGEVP

| Variant | effect of a mutation on the interaction |
| --- | --- |
| S535N | with no effect |
| Y456H | with no effect |

Variants of: B1
Settings: with tri41_human TRIM41, Q8WV44

| Variant | effect of a mutation on the interaction |
| --- | --- |
| S535N | with no effect |
| Y456H | with no effect |

Variants of: B1
Settings: with aen_human AEN

| Variant | effect of a mutation on the interaction |
| --- | --- |
| S535N | with no effect |
| Y456H | with no effect |

Variants of: B2
Settings: with tnpo2_human TNPO2, O14787

| Variant | effect of a mutation on the interaction |
| --- | --- |
| MSGCDAREGDCCSRRCGAQDKEHPRYLIPELCKQFYHLGWVTGTGGGISLKHGDEIYIAPSGVQKERIQPEDMFVCDINEKDISGPSPSKKLKKSQCTPLFMNAYTMRGAGAVIHTHSKAAVMATLLFPGREFKITHQEMIKGIKKCTSGGYYRYDDMLVVPIIENTPEEKDLKDRMAHAVNEYPDSCAVLVRRHGVYVWGETWEKAKTMCECYDYLFDIAVSMKKVGLDPSQLPVGENGIV [M181V] | disrupting interaction strength |
| MSGCDAREGDCCSRRCGAQDKEHPRYLIPELCKQFYHLGWVTGTGGGISLKHGDEIYIAPSGVQKERIQPEDMFVCDINEKDISGPSPSKKLKKSQCTPLFMNAYTMRGAAAVIHTHSKAAVMATLLFPGREFKITHQEMIKGIKKCTSGGYYRYDDMLVVPIIENTPEEKDLKDRMAHAMNEYPDSCAVLVRRHGVYVWGETWEKAKTMCECYDYLFDIAVSMKKVGLDPSQLPVGENGIV [G111A] | with no effect |

Variants of: B3
Settings: with FAM124A

| Variant | effect of a mutation on the interaction |
| --- | --- |
| N267S | with no effect |

Variants of: B4
Settings: with dmrtb_human DMRTB1, Q96MA1
dmrtb_human DMRTB1, Q96MA1, sequence (Q96MA1 whole entry): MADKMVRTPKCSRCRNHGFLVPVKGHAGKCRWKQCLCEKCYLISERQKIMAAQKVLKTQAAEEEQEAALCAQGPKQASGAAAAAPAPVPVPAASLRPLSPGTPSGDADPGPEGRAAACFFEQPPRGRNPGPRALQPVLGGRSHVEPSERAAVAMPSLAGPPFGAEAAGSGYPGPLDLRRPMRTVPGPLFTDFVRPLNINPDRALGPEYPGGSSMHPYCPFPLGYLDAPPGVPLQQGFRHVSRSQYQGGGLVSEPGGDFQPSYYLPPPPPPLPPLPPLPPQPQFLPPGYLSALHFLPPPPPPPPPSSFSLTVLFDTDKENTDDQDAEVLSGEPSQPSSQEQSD

| Variant | effect of a mutation on the interaction |
| --- | --- |
| MKSFLLVVNALALTLPFLAVEVQNQKQPACHENDERPFYQKTAPYVPMYYVPNSYPYYGTNLYQRRPAIAINNPYVPRTYYANPAVVRPHAQIPQRQYLPNSHPPTVVRRPNLHPSFIAIPPKKIQDKIIIPTINTIATVEPTPTPATEPTVDSVVTPEAFSESIITSTPETTTVAVTPPTA [A145T] | with no effect |
| MKSFLLVVNALALTLPFLAVEVQNQKQPACHENDERPFYQKTAPYVPMYYVPNSYPYYGTNLYQRRPAIAINNPYVPRTYYANPAVVRPHAQIPQLQYLPNSHPPTVVRRPNLHPSFIAIPPKKIQDKIIIPTINTIATVEPTPAPATEPTVDSVVTPEAFSESIITSTPETTTVAVTPPTA [R96L] | with no effect |

Variants of: B4
Settings: with rbpms_human RBPMS

| Variant | effect of a mutation on the interaction |
| --- | --- |
| MKSFLLVVNALALTLPFLAVEVQNQKQPACHENDERPFYQKTAPYVPMYYVPNSYPYYGTNLYQRRPAIAINNPYVPRTYYANPAVVRPHAQIPQLQYLPNSHPPTVVRRPNLHPSFIAIPPKKIQDKIIIPTINTIATVEPTPAPATEPTVDSVVTPEAFSESIITSTPETTTVAVTPPTA [R96L] | with no effect |

Variants of: B5
Settings: with gors2_human GORASP2, Q9H8Y8

| Variant | effect of a mutation on the interaction |
| --- | --- |
| MAAAVGRLLRASVARHVSAIPWGISATAALRPAACGRTSLTNLLCSGSSQAKLFSTSSSCHAPAVTQHAPYFKGTAVVNGEFKDLSLDDFKGKYLVLFFYPLDFTFVCPTEIVAFSDKANEFHDVNCEVVAVSVDSHFSHLAWINTPRKNGGLGHMNIALLSDLTKQISRDYCVLLEGSGLALRGLFIIDPNGVIKHLSVNDLPVGRSVEETLRLVKAFQYVETHGEVCPANWTPDSPTIKPSPAASKEYFQKVNQ [G173C] | with no effect |

Variants of: B6
Settings: with KRT15, P19012
KRT15, P19012, sequence (P19012 whole entry): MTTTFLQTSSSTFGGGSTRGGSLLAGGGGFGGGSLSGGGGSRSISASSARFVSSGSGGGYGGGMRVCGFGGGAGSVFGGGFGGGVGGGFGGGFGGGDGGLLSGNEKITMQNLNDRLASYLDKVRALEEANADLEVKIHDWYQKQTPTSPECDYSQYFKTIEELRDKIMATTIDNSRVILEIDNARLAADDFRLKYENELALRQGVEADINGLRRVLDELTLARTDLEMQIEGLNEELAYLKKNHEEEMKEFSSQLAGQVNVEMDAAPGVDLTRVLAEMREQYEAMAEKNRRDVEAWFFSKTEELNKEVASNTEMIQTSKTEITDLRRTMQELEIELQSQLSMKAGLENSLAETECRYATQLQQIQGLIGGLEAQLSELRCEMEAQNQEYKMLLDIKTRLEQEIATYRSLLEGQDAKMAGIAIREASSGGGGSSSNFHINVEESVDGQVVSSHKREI

| Variant | effect of a mutation on the interaction |
| --- | --- |
| MALPTLPSYWCSQQRLNQQLARQREQEARLRQQWEQNSRYFRMSDICSSKQAEWSSKTSYQQSMHAYQREKMKEEKRRSLEARREKLRQLMQEEQDLLARELEELRLSMNLQERRIREQHGKLKSAKEEQRKLIAEQLLYEHWKKNNPKLREMELDLHQKHVVNSWEMQKEEKKQQEATAEQENKRYENEYERARREALERMKAEEERRQLEDKLQAEALLQQMEELKLKEVEATKLKKEQENLLKQRWELERLEEERKQMEAFRQKAELGRFLRHQYNAQLSRRTQQIQEELEADRRILQALLEKEDESQRLHLARREQVMADVAWMKQAIEEQLQLERAREAELQMLLREEAKEMWEKREAEWARERSARDRLMSEVLTGRQQQIQEKIEQNRRAQEESLKHREQLIRNLEEVRELARREKEESEKLKSARKQELEAQVAERRLQAWEADQQEEEEEEEARRVEQLSDALLQQEAETMAEQGYRPKPYGHPKIAWN [R62Q] | with no effect |
